Experimental data as given in the supplement of paper PMC10567573.

B1: TRIM35 (parent)
chain: WEVQVSPTCPVCKDRASPADLRTN
B2: SETD8 (parent)
chain: FVVEYHGDLIEITDAKKREALYAQ

Variants of: B1
Assay: protein stability index of a GFP-peptide fusion (GPS, HEK-293T) (PSI 1-6); higher = more stable
Details: c terminus: a fixed tail appended
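Further: lentivirally expressed fusions sorted by FACS into six bins by GFP to DsRed ratio, PSI derived from sequencing read proportions per bin multiplied by bin number.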

Protein stability index: each site, then its substitutions
D20: H 1.66, I 1.47, K 2.08, L 2.15, M 1.71, N 2.2, P 1.85, S 1.68, V 1.97, Y 1.18
L21: A 3.04, C 3.26, E 2.98, F 2, G 2.04, H 2.54, I 2.59, K 3.15, M 2.13, N 3.21, Q 2.5, R 2.37, S 2.58, T 2.62, V 3.33, W 2.62, Y 2.57
R22: C 2.91, D 3.8, E 4.1, F 2.22, G 2.03, H 2.54, I 2.7, K 3.34, L 2.45, N 2.75, P 3.74, Q 3.33, S 2.91, T 2.91, V 3.75, Y 2.49
T23: A 2.28, C 2.13, D 3.45, E 2.83, F 1.82, H 2.93, I 2.18, K 3.12, L 3.09, M 2.5, N 2.74, P 2.08, Q 2.58, S 2.26, V 2.06, W 2.02, Y 1.73
N24: A 2.29, C 2.43, D 3.14, E 2.29, F 1.55, H 1.42, I 1.7, K 3.12, L 1.71, M 1.55, P 2.47, Q 2.81, R 2.74, S 2.57, V 1.19, Y 1.6

Variants of: B2
Assay: as above
Details: c terminus: a fixed tail appended

Protein stability index: each site, then its substitutions
F1: A 4.23, C 3.3, D 4.46, E 4.75, G 4.8, H 4.35, I 2.37, K 3.65, L 1.85, M 2.71, N 4.78, P 4.46, Q 4.63, R 3.74, S 4.43, T 4.14, V 2.5, Y 2.62
V2: A 3.83, C 3.25, D 4.2, E 3.73, F 2.19, G 3.95, H 3.65, I 1.83, K 3.6, L 2.13, M 2.49, N 3.64, P 4.09, Q 3.12, R 3.02, S 2.97, T 2.38, W 1.32, Y 1.66
V3: A 1.81, C 2.24, D 2.15, E 2.83, F 1.51, G 3.07, H 2.77, I 2.83, K 2.36, L 1.98, M 2.64, N 3.01, P 2.03, Q 2.32, R 2.02, S 1.84, T 2.23, W 2.12, Y 1.99
E4: A 2.3, C 1.82, D 2.35, F 1.88, G 3.07, H 1.6, I 1.03, K 1.45, L 2.61, M 1.67, N 1.92, P 1.84, Q 2.69, R 1.97, S 1.76, T 1.74, V 1.6, W 1.44, Y 1.72
Y5: A 1.99, C 2.05, D 3.2, E 3.86, F 1.88, G 2.4, H 2.1, I 1.95, K 2.68, L 1.89, M 2.11, N 2.73, P 3.03, Q 2.93, R 2.67, S 2.41, T 2.32, V 2.06, W 1.43
H6: A 1.9, C 3.73, D 3.13, E 2.88, F 2.12, G 2.15, I 2.19, K 1.74, L 2.02, M 2.04, N 2.2, P 2, Q 2.06, R 2.18, S 2.31, T 1.76, W 1.35, Y 2.16
G7: A 1.56, C 1.76, D 2.33, E 2.33, F 2.87, H 2.08, I 3.15, K 1.66, M 1.08, N 2.34, P 2.65, Q 1.83, R 2.76, S 1.89, T 1.94, V 1.11
D8: A 1.65, C 2.01, E 2.15, F 2.77, G 2.01, H 1.56, K 1.82, L 2.85, M 3.28, N 1.7, P 1.83, Q 1.59, S 2.33, T 1.45, V 3.4, Y 1.84
L9: A 2.31, C 2.25, D 2.91, E 2.42, F 3.03, G 1.59, H 1.93, I 1.59, K 2.58, M 1.46, N 2.86, P 2.26, Q 2.73, R 1.8, S 1.74, T 2.06, V 2.47, W 1.47, Y 1.68
I10: A 2.08, C 1.99, D 2.58, E 2.21, F 2.1, G 2.11, H 1.64, K 2.28, L 2.17, M 1.67, N 1.88, P 2.25, Q 2.5, R 1.82, S 2.21, T 2.01, V 1.56, W 1.21, Y 1.61
E11: A 1.14, C 3.07, D 2.36, F 2.92, H 2.25, K 2.1, L 3.14, M 2.49, N 2.04, P 2.62, Q 2.51, R 1.37, S 2.25, T 2.43, V 1.96, Y 2.56
I12: A 1.98, C 2.1, D 2.22, E 2.74, F 2.21, G 1.64, H 2.48, K 2.75, L 2.55, M 1.72, N 2.54, P 2.36, Q 2.77, R 2.48, S 2.09, T 2.02, V 2.18, W 2.45, Y 1.56
T13: A 1.73, C 2.42, D 1.97, E 1.76, F 3.25, G 1.41, H 2.02, I 2.24, K 2.79, L 2.63, M 1.5, N 1.96, P 2.65, Q 3.21, R 2.07, S 2.46, V 3.05, Y 1.78
D14: A 2.08, C 1.46, E 2.75, F 2.45, G 3.5, H 1.52, I 2.69, K 2.58, L 1.16, M 1.95, N 1.65, P 1.37, Q 2.13, R 1.72, S 1.88, T 1.21, V 1.45, W 1.31
A15: C 1.67, D 1.82, E 2.08, F 2.25, G 2.23
